Data reported in the supplement of paper PMC9112550, “Optimization of the antimicrobial peptide Bac7 by deep mutational scanning” (BMC Biology, 2022).

These sequences were tested on Escherichia coli TOP10 (assay: shrunken log2 fold change of peptide-encoding DNA abundance (4.5 h post-induction vs induction); higher = less antimicrobial activity (less host growth inhibition)). Conditions: time post-induction: 4.5 h; library: site-saturation at positions 5, 18, 19, 20.
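Further: peptides expressed intracellularly from a pBAD plasmid library in pooled LB shake-flask culture, induced with 0.3% L-arabinose, DNA abundance read by NGS, three biological replicates, DESeq2 with apeglm shrinkage.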

| Sequence | shrunken log2 fold change |
| --- | --- |
| RRIRERPPRLPRPRPRPHIHPRP | -0.135 |
| RRIRMRPPRLPRPRPRPSWHPRP | -0.103 |
| RRIRCRPPRLPRPRPRPSPPPRP | 0.252 |
| RRIRRRPPRLPRPRPRPMKLPRP | -0.123 |
| RRIRSRPPRLPRPRPRPAVAPRP | 0.0474 |
| RRIRPRPPRLPRPRPRPIVNPRP | -0.166 |
| RRIRYRPPRLPRPRPRPYRMPRP | -0.725 |
| RRIRLRPPRLPRPRPRPDSMPRP | -0.166 |
| RRIRIRPPRLPRPRPRPIYYPRP | -0.539 |
| RRIRIRPPRLPRPRPRPIYEPRP | -0.107 |
| RRIRDRPPRLPRPRPRPFVFPRP | 0.175 |
| RRIRERPPRLPRPRPRPVQEPRP | 0.0869 |
| RRIRDRPPRLPRPRPRPPLNPRP | 0.0565 |
| RRIRKRPPRLPRPRPRPVHQPRP | 0.305 |
| RRIRCRPPRLPRPRPRPMFQPRP | -0.151 |
| RRIRRRPPRLPRPRPRPTEFPRP | -0.191 |
| RRIRPRPPRLPRPRPRPESYPRP | -0.00116 |
| RRIRIRPPRLPRPRPRPQMCPRP | 0.0648 |
| RRIRDRPPRLPRPRPRPYLGPRP | -0.021 |
| RRIRRRPPRLPRPRPRPDVEPRP | 0.0547 |
| RRIRLRPPRLPRPRPRPMMLPRP | -0.335 |
| RRIRARPPRLPRPRPRPYTAPRP | -0.0946 |
| RRIRMRPPRLPRPRPRPTDIPRP | 0.501 |
| RRIRVRPPRLPRPRPRPHPRPRP | 0.555 |
| RRIRGRPPRLPRPRPRPIIGPRP | -0.0822 |

| Sequence | shrunken log2 fold change |
| --- | --- |
| RRIRYRPPRLPRPRPRPESVPRP | -0.316 |
| RRIRHRPPRLPRPRPRPMYFPRP | -0.00207 |
| RRIRVRPPRLPRPRPRPGVFPRP | 0.117 |
| RRIRARPPRLPRPRPRPENIPRP | -0.251 |
| RRIRVRPPRLPRPRPRPRNTPRP | -0.365 |
| RRIRHRPPRLPRPRPRPRPRPRP | 0.707 |
| RRIRSRPPRLPRPRPRPQWAPRP | 0.0253 |
| RRIRVRPPRLPRPRPRPQTEPRP | -0.134 |
| RRIRSRPPRLPRPRPRPESLPRP | 0.0154 |
| RRIRQRPPRLPRPRPRPHCLPRP | 0.0735 |
| RRIRERPPRLPRPRPRPYNCPRP | 0.275 |
| RRIRYRPPRLPRPRPRPTKPPRP | -0.013 |
| RRIRERPPRLPRPRPRPTLVPRP | -0.0681 |
| RRIRKRPPRLPRPRPRPTDHPRP | 0.375 |
| RRIRVRPPRLPRPRPRPGWLPRP | 0.543 |
| RRIRYRPPRLPRPRPRPIKDPRP | -0.171 |
| RRIRCRPPRLPRPRPRPERQPRP | -0.00823 |
| RRIRMRPPRLPRPRPRPDSIPRP | 0.0402 |
| RRIRHRPPRLPRPRPRPSGVPRP | -0.115 |
| RRIRWRPPRLPRPRPRPYSVPRP | -0.55 |
| RRIRMRPPRLPRPRPRPKDPPRP | 0.438 |
| RRIRQRPPRLPRPRPRPHRIPRP | -0.0425 |
| RRIRNRPPRLPRPRPRPFWGPRP | -0.157 |
| RRIRHRPPRLPRPRPRPAPLPRP | 0.16 |
| RRIRMRPPRLPRPRPRPQIWPRP | 0.144 |

| Sequence | shrunken log2 fold change |
| --- | --- |
| RRIRQRPPRLPRPRPRPGQTPRP | 0.00514 |
| RRIRRRPPRLPRPRPRPKDTPRP | 0.0485 |
| RRIRERPPRLPRPRPRPSNKPRP | -0.811 |
| RRIRLRPPRLPRPRPRPMEGPRP | 0.0303 |
| RRIRARPPRLPRPRPRPGHQPRP | 0.304 |
| RRIRARPPRLPRPRPRPISNPRP | -0.174 |
| RRIRARPPRLPRPRPRPKSMPRP | 0.0164 |
| RRIRGRPPRLPRPRPRPRNQPRP | 0.402 |
| RRIRLRPPRLPRPRPRPGMTPRP | 0.00528 |
| RRIRRRPPRLPRPRPRPREEPRP | 0.919 |
| RRIRYRPPRLPRPRPRPWDEPRP | -0.999 |
| RRIRPRPPRLPRPRPRPWDYPRP | -0.19 |
| RRIRTRPPRLPRPRPRPFNAPRP | -0.344 |
| RRIRRRPPRLPRPRPRPCDIPRP | 0.181 |
| RRIRMRPPRLPRPRPRPFGLPRP | -0.0107 |
| RRIRARPPRLPRPRPRPMMKPRP | -0.146 |
| RRIRDRPPRLPRPRPRPEGKPRP | -0.0117 |
| RRIRIRPPRLPRPRPRPDQFPRP | -0.321 |
| RRIRHRPPRLPRPRPRPTAFPRP | -0.00502 |
| RRIRGRPPRLPRPRPRPHFCPRP | 0.117 |
| RRIRTRPPRLPRPRPRPYILPRP | -0.0244 |
| RRIRQRPPRLPRPRPRPGWQPRP | -0.00211 |
| RRIRYRPPRLPRPRPRPSNMPRP | -1.1 |
| RRIRFRPPRLPRPRPRPRDNPRP | -0.173 |
| RRIRCRPPRLPRPRPRPEIWPRP | 0.471 |

| Sequence | shrunken log2 fold change |
| --- | --- |
| RRIRIRPPRLPRPRPRPYFQPRP | -0.511 |
| RRIRWRPPRLPRPRPRPWGAPRP | 0.297 |
| RRIRTRPPRLPRPRPRPGGVPRP | 0.346 |
| RRIRSRPPRLPRPRPRPRWFPRP | 0.0783 |
| RRIRMRPPRLPRPRPRPKCFPRP | 0.0196 |
| RRIRDRPPRLPRPRPRPYCNPRP | -0.137 |
| RRIRVRPPRLPRPRPRPRVHPRP | 1.62 |
| RRIRFRPPRLPRPRPRPRQIPRP | 0.0287 |
| RRIRWRPPRLPRPRPRPNCTPRP | 0.0251 |
| RRIRLRPPRLPRPRPRPINCPRP | -0.0463 |
| RRIRYRPPRLPRPRPRPLPGPRP | -0.139 |
| RRIRCRPPRLPRPRPRPRHFPRP | -0.374 |
| RRIRLRPPRLPRPRPRPAAHPRP | 0.163 |
| RRIRSRPPRLPRPRPRPMGVPRP | -0.084 |
| RRIRERPPRLPRPRPRPFLFPRP | -0.286 |
| RRIRWRPPRLPRPRPRPPMQPRP | 0.322 |
| RRIRDRPPRLPRPRPRPGCNPRP | 0.0955 |
| RRIRHRPPRLPRPRPRPHYEPRP | 0.0367 |
| RRIRLRPPRLPRPRPRPCPPPRP | 0.157 |
| RRIRERPPRLPRPRPRPLLRPRP | -0.152 |
| RRIRHRPPRLPRPRPRPDHIPRP | -0.336 |
| RRIRCRPPRLPRPRPRPTHWPRP | 0.546 |
| RRIRERPPRLPRPRPRPGLPPRP | -0.112 |
| RRIRPRPPRLPRPRPRPHYEPRP | -0.206 |
| RRIRQRPPRLPRPRPRPKWTPRP | -0.164 |

| Sequence | shrunken log2 fold change |
| --- | --- |
| RRIRIRPPRLPRPRPRPTEEPRP | 0.146 |
| RRIRRRPPRLPRPRPRPCMCPRP | -0.382 |
| RRIRMRPPRLPRPRPRPAPCPRP | 0.835 |
| RRIRFRPPRLPRPRPRPISHPRP | -0.202 |
| RRIRHRPPRLPRPRPRPCGVPRP | -0.00991 |
| RRIRARPPRLPRPRPRPQVCPRP | 0.0435 |
| RRIRYRPPRLPRPRPRPKRFPRP | 0.00705 |
| RRIRLRPPRLPRPRPRPQIHPRP | -0.154 |
| RRIRCRPPRLPRPRPRPMFAPRP | 0.186 |
| RRIRRRPPRLPRPRPRPGNRPRP | -0.151 |
| RRIRYRPPRLPRPRPRPDAAPRP | 0.294 |
| RRIRVRPPRLPRPRPRPNSMPRP | -0.575 |
| RRIRQRPPRLPRPRPRPCYMPRP | -0.832 |
| RRIRERPPRLPRPRPRPCCYPRP | 0.00792 |
| RRIRNRPPRLPRPRPRPARTPRP | 0.139 |
| RRIRYRPPRLPRPRPRPWAGPRP | -0.53 |
| RRIRCRPPRLPRPRPRPLDNPRP | -0.235 |
| RRIRCRPPRLPRPRPRPNAWPRP | -0.247 |
| RRIRDRPPRLPRPRPRPMMEPRP | 0.0314 |
| RRIRPRPPRLPRPRPRPIIKPRP | -0.417 |
| RRIRDRPPRLPRPRPRPQVCPRP | 0.19 |
| RRIRRRPPRLPRPRPRPMWSPRP | 0.311 |
| RRIRRRPPRLPRPRPRPVGNPRP | -0.0457 |
| RRIRFRPPRLPRPRPRPQQLPRP | -0.437 |
| RRIRTRPPRLPRPRPRPCIVPRP | -0.164 |

| Sequence | shrunken log2 fold change |
| --- | --- |
| RRIRCRPPRLPRPRPRPCTVPRP | -0.419 |
| RRIRMRPPRLPRPRPRPNDHPRP | -0.0869 |
| RRIRMRPPRLPRPRPRPASGPRP | 0.652 |
| RRIRDRPPRLPRPRPRPILVPRP | 0.0243 |
| RRIRIRPPRLPRPRPRPTAKPRP | -0.184 |
| RRIRTRPPRLPRPRPRPWHAPRP | 0.093 |
| RRIRSRPPRLPRPRPRPYLPPRP | -0.552 |
| RRIRGRPPRLPRPRPRPHMGPRP | 0.121 |
| RRIRDRPPRLPRPRPRPMFRPRP | -0.114 |
| RRIRQRPPRLPRPRPRPTTAPRP | -0.00139 |
| RRIRWRPPRLPRPRPRPWQTPRP | -0.0178 |
| RRIRSRPPRLPRPRPRPKRDPRP | 0.0509 |
| RRIRGRPPRLPRPRPRPDGYPRP | 0.222 |
| RRIRYRPPRLPRPRPRPKIKPRP | -0.583 |
| RRIRGRPPRLPRPRPRPKMCPRP | 0.102 |
| RRIRQRPPRLPRPRPRPLYAPRP | -0.399 |
| RRIRMRPPRLPRPRPRPLGGPRP | 0.548 |
| RRIRYRPPRLPRPRPRPCHKPRP | -0.821 |
| RRIRFRPPRLPRPRPRPGLKPRP | 0.0731 |
| RRIRIRPPRLPRPRPRPNYNPRP | -1.12 |
| RRIRRRPPRLPRPRPRPVIIPRP | -0.106 |
| RRIRDRPPRLPRPRPRPTRKPRP | 0.385 |
| RRIRARPPRLPRPRPRPKRGPRP | 0.565 |
| RRIRGRPPRLPRPRPRPAFLPRP | 0.367 |
| RRIRDRPPRLPRPRPRPRGDPRP | 0.231 |
